In publication PMC2504289:

Target: T1, CH1° 0p (unphosphorylated C-terminal domain of histone H1°) (UniProt P10922 98-194)
T1 sequence: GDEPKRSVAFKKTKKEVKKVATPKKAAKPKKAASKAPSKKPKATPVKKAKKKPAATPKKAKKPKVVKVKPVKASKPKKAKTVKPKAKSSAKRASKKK
Experiment: EMSA

B1: 50 bp dsDNA fragment (dsDNA)
DNA 1: CTATGATATATAGATAGTTAATGTAATATGATATAGATATAGGGATCC
DNA 2: GGATCCCTATATCTATATCATATTACATTAACTATCTATATATCATAG
  binding result: binds
